Reference: paper PMC4486954, “Highly homologous proteins exert opposite biological activities by using different interaction interfaces” (Scientific Reports, 2015)
cellulose membrane = C-terminus attached to a cellulose membrane (CelluSpots array) through an amide bond

T1: iASPP Ank-SH3 (Homo sapiens, UniProt Q8WUF5)
T1 construct: (2) iASPP Ank-SH3 603-828; HLT tag (His tag + lipoyl domain + TEV site) (N, cleaved yes); made in house; host or cells: E. coli HMS 174 (Novagen)
T1 sequence (Q8WUF5 603-828): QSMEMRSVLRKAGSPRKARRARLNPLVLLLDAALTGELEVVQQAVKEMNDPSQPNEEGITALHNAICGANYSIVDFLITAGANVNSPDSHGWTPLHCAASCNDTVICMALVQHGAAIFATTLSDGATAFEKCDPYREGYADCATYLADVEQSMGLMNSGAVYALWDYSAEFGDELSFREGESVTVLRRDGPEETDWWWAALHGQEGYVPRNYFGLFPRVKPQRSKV

T2: HLT-iASPP Ank-SH3 (human, UniProt Q8WUF5 603-828)
T2 construct: iASPP (human), four ankyrin repeats and SH3 domain, residues 603-828, Swiss-Prot Q8WUF5; Detected on the arrays by its His tag (anti His HRP antibody); source: E. coli HMS 174, purified (Nickel Sepharose, size exclusion chromatography); not shown: HLT (His tag, lipoyl domain, TEV protease cleavage site), N-terminal, kept
T2 sequence (looked up): T1 sequence (Q8WUF5 603-828)

B1: iASPP Pro array peptide 324-338 (spot B23) (peptide)
peptide: Ac-SDAGSYRRSLGSAGP-{cellulose membrane (amide bond)}
modifications: also: C-terminus bound to cellulose membrane via amide
notes: iASPP (human) residues 324-338; source: synthetic peptide on CelluSpots array (INTAVIS)
B2: iASPP Pro array peptide 340-354 (spot C1) (peptide)
peptide: Ac-GTLPRSWQPVSRIPM-{cellulose membrane (amide bond)}
modifications: also: C-terminus bound to cellulose membrane via amide
notes: iASPP (human) residues 340-354; source: synthetic peptide on CelluSpots array (INTAVIS)
B3: iASPP Pro array peptide 348-362 (spot C2) (peptide)
peptide: Ac-PVSRIPMPPSSPQPR-{cellulose membrane (amide bond)}
modifications: also: C-terminus bound to cellulose membrane via amide
notes: iASPP (human) residues 348-362; source: synthetic peptide on CelluSpots array (INTAVIS)
B4: iASPP Pro array peptide 356-370 (spot C3) (peptide)
peptide: Ac-PSSPQPRGAPRQRPI-{cellulose membrane (amide bond)}
modifications: also: C-terminus bound to cellulose membrane via amide
notes: iASPP (human) residues 356-370; source: synthetic peptide on CelluSpots array (INTAVIS)
B5: iASPP Pro array peptide 380-394 (spot C6) (peptide)
peptide: Ac-NAFWEHGASRAMLPG-{cellulose membrane (amide bond)}
modifications: also: C-terminus bound to cellulose membrane via amide
notes: iASPP (human) residues 380-394; source: synthetic peptide on CelluSpots array (INTAVIS)
B6: iASPP Pro array peptide 388-402 (spot C7) (peptide)
peptide: Ac-SRAMLPGSPLFTRAP-{cellulose membrane (amide bond)}
modifications: also: C-terminus bound to cellulose membrane via amide
notes: iASPP (human) residues 388-402; source: synthetic peptide on CelluSpots array (INTAVIS)
B7: iASPP Pro array peptide 396-410 (spot C8) (peptide)
peptide: Ac-PLFTRAPPPKLQPQP-{cellulose membrane (amide bond)}
modifications: also: C-terminus bound to cellulose membrane via amide
notes: iASPP (human) residues 396-410; source: synthetic peptide on CelluSpots array (INTAVIS)
B8: iASPP Pro array peptide 484-498 (spot C19) (peptide)
peptide: Ac-VARPLSPTRLQPALP-{cellulose membrane}
modifications: also: C-terminus bound to cellulose membrane via amide
notes: iASPP (human) residues 484-498; source: synthetic peptide on CelluSpots array (INTAVIS)
B9: iASPP Pro array peptide 540-554 (spot D3) (peptide)
peptide: Ac-KKQYQQIISRLFHRH-{cellulose membrane}
modifications: also: C-terminus bound to cellulose membrane via amide
notes: iASPP (human) residues 540-554; source: synthetic peptide on CelluSpots array (INTAVIS)
B10: iASPP Pro array peptide 548-562 (spot D4) (peptide)
peptide: Ac-SRLFHRHGGPGPGGP-{cellulose membrane}
modifications: also: C-terminus bound to cellulose membrane via amide
notes: iASPP (human) residues 548-562; source: synthetic peptide on CelluSpots array (INTAVIS)
B11: iASPP Pro array peptide 60-74 (spot A14) (peptide)
peptide: Ac-QAGPPSRPPRYSSSS-{cellulose membrane}
modifications: also: C-terminus bound to cellulose membrane via amide
notes: iASPP (human) residues 60-74; source: synthetic peptide on CelluSpots array (INTAVIS)
B12: iASPP Pro array peptide 604-618 (spot D11) (peptide)
peptide: Ac-SMEMRSVLRKAGSPR-{cellulose membrane}
modifications: also: C-terminus bound to cellulose membrane via amide
notes: iASPP (human) residues 604-618; also called iASPP 604-618; source: synthetic peptide on CelluSpots array (INTAVIS)
B13: iASPP Pro array peptide 68-82 (spot A15) (peptide)
peptide: Ac-PRYSSSSIPEPFGSR-{cellulose membrane}
modifications: also: C-terminus bound to cellulose membrane via amide
notes: iASPP (human) residues 68-82; source: synthetic peptide on CelluSpots array (INTAVIS)
B14: iASPP Pro array peptide 132-146 (spot A23) (peptide)
peptide: Ac-YGSLDRATSPRPRAF-{cellulose membrane (amide bond)}
modifications: also: C-terminus bound to cellulose membrane via amide
notes: iASPP (human) residues 132-146; source: synthetic peptide on CelluSpots array (INTAVIS)
B15: iASPP Pro array peptide 148-162 (spot B1) (peptide)
peptide: Ac-GAGSSLGRAPSPRPG-{cellulose membrane (amide bond)}
modifications: also: C-terminus bound to cellulose membrane via amide
notes: iASPP (human) residues 148-162; source: synthetic peptide on CelluSpots array (INTAVIS)
B16: iASPP Pro array peptide 156-170 (spot B2) (peptide)
peptide: Ac-APSPRPGPGPLRQQG-{cellulose membrane (amide bond)}
modifications: also: C-terminus bound to cellulose membrane via amide
notes: iASPP (human) residues 156-170; source: synthetic peptide on CelluSpots array (INTAVIS)
B17: iASPP Pro array peptide 172-186 (spot B4) (peptide)
peptide: Ac-PTPFDFLGRAGSPRG-{cellulose membrane (amide bond)}
modifications: also: C-terminus bound to cellulose membrane via amide
notes: iASPP (human) residues 172-186; source: synthetic peptide on CelluSpots array (INTAVIS)
B18: iASPP Pro array peptide 196-210 (spot B7) (peptide)
peptide: Ac-FFPERGPSPRPPATA-{cellulose membrane (amide bond)}
modifications: also: C-terminus bound to cellulose membrane via amide
notes: iASPP (human) residues 196-210; source: synthetic peptide on CelluSpots array (INTAVIS)
B19: iASPP Pro array peptide 308-322 (spot B21) (peptide)
peptide: Ac-TLPRNYKVSPLASDR-{cellulose membrane (amide bond)}
modifications: also: C-terminus bound to cellulose membrane via amide
notes: iASPP (human) residues 308-322; source: synthetic peptide on CelluSpots array (INTAVIS)

These molecules were tested against T1, iASPP Ank-SH3 (assay: Fluorescence anisotropy binding of fluorescein-labeled iASPP Pro derived peptides to iASPP Ank-SH3). Conditions: 250 μM iASPP Ank-SH3 titrated into 100 nM fluorescein-labeled peptide, 10 °C, 20 mM Hepes pH 7.3, ionic strength 50 mM.
Experimental: Binding of the iASPP Pro-derived peptides to iASPP Ank-SH3 was measured by fluorescence anisotropy using a PerkinElmer Life Sciences LS-50b spectrofluorimeter equipped with a Hamilton microlab M dispenser. Titration of iASPP Ank-SH3 into iASPP Pro derived fluorescein-labeled (FL) peptides was performed at 10 °C in 20 mM Hepes buffer, pH 7.3, 43 mM NaCl (total ionic strength = 50 mM), 10% glycerol and 5 mM β-mercaptoethanol. The excitation wavelength was set at 480 nm and the emission measured at 530 nm. The labeled peptide, dissolved in 1 ml buffer to a final concentration of 100 nM, was placed in the cuvette. 250 μM iASPP Ank-SH3 was placed in the dispenser and aliquots of 10–20 μl were added at 1.5 min intervals. The solution was then stirred for 30 sec, and the fluorescence and anisotropy were measured. Data were analyzed using the program Origin8 (OriginLab) and were fit to 1:1 binding model:
[drawing 1] (R- measured fluorescence anisotropy, R0- anisotropy value corresponding to the free peptide, ∆R- amplitude of the fluorescence anisotropy change, [Protein]- protein concentration, Kd- dissociation constant).

Molecule | binding to iASPP Ank-SH3 (in words)
FFPERGPSPRPPATA [iASPP 196-210, iASPP Pro derived peptide, residues 196-210] | no binding
PLFTRAPPPKLQPQP [iASPP 396-410, iASPP Pro derived peptide, residues 396-410] | too weak to quantify
PTPFDFLGRAGSPRG [iASPP 172-186, iASPP Pro derived peptide, residues 172-186] | too weak to quantify
APSPRPGPGPLRQQG [iASPP 156-170, iASPP Pro derived peptide, residues 156-170] | no binding
PRYSSSSIPEPFGSR [iASPP 68-82, iASPP Pro derived peptide, residues 68-82] | no binding
YGSLDRATSPRPRAF [iASPP 132-146, iASPP Pro derived peptide, residues 132-146] | too weak to quantify
VARPLSPTRLQPALP [iASPP 484-498, iASPP Pro derived peptide, residues 484-498] | too weak to quantify
TLPRNYKVSPLASDR [iASPP 308-322, iASPP Pro derived peptide, residues 308-322] | no binding
SDAGSYRRSLGSAGP [iASPP 324-338, iASPP Pro derived peptide, residues 324-338] | no binding

What follows are molecules tested against T2, HLT-iASPP Ank-SH3 (assay: peptide or protein array; CelluSpots array of 79 partly overlapping 15-residue iASPP Pro peptides on cellulose; 5 uM HLT-iASPP Ank-SH3 in 20 mM phosphate pH 7.0, ionic strength 150 mM, 5 mM βME, 10% glycerol, 2.5% skimmed milk; 4 °C overnight; detected with anti His HRP antibody). Conditions: both partners purified.

Molecule | binding result
B1 | binds
B2 | binds
B3 | binds
B4 | binds
B5 | binds
B6 | binds
B7 | binds
B8 | binds
B9 | binds
B10 | binds
B11 | binds
B12 | binds
B13 | binds
B14 | binds
B15 | binds
B16 | binds
B17 | binds
B18 | binds
B19 | binds
